One series concerns the target F-actin (UniProt P68135). Kind of series: co-sedimentation.
The series “gel electrophoresis” deals with the molecule itself. Kind of series: gel electrophoresis.
A further series deals with CFP-SERCA1a (UniProt O14983-2 1-994). The series is described as follows: FRET or BRET. In general terms: Bioluminescence resonance energy transfer reports proximity on the nanometre scale.

From PMC2712976 (The Journal of General Physiology, 2009) come the findings set out here.

By Kd is commonly meant the equilibrium constant for the complex coming apart. Read a low Kd as a tighter complex. As usually defined, the stoichiometry N is a count of units in the complex or per binding partner. In the series with F-actin, “first four N-terminal domains (C0-C1-motif-C2) of cardiac myosin binding protein C (domain or fragment)” gave a Kd of 10 µM and a stoichiometry N of 1 molar ratio.

B1: WT phospholamban (in vitro sample) (natural protein)
chain: MEKVQYLTRSAIRRASTIEMPQQARQKLQNLFINFCLILICLLLICIIVMLL
Turning to B1, in “gel electrophoresis”, the “stoichiometry N” value stood at 5.

B2: YFP-PLB (natural protein)
chain: MEKVQYLTRSAIRRASTIEMPQQARQKLQNLFINFCLILICLLLICIIVMLL
For B2, the “fold higher apparent affinity relative to SERCA2a” value in the series with CFP-SERCA1a stood at 2.6 fold.
